Experimental data as given in the Human Domainome abundance scans (Beltran et al. 2025).

B1: Serine/threonine-protein kinase LATS1, residues 98 to 141; numbered along this chain, O95835 (parent)
chain: TSEVNPQMLQDLQAAGFDEDMVIQALQKTNNRSIEAAIEFISKM

Variants of: B1
Assay: abundance fitness (aPCA) (normalised: wild type 0, dead -1); higher = more abundant; growth selection in yeast, the domain comes from the species named
Details: Homo sapiens

Abundance fitness: each site, then its substitutions
D18: H -0.159 | Q -0.077 | K -0.117 | S -0.169 | Y -0.837 | E 0.036 | M -0.59 | R -0.22 | G -0.169 | A -0.032 | C -0.187 | F -0.564 | N -0.21 | L -0.617 | P -0.113 | T -0.204 | V -0.597 | W -0.853
D11: E 0.091 | G -0.479 | T -0.048 | Y -0.086 | S -0.021 | L -0.153 | R -0.134 | M -0.154 | H -0.182 | F -0.045 | K 0.083 | Q 0.092 | I -0.083 | N -0.004 | P -1.08 | A -0.017
A14: Q -0.132 | F -0.455 | L -0.188 | C -0.325 | Y -0.339 | W -0.706 | S -0.047 | P -0.898 | M -0.151 | E 0.039 | V -0.308 | G -0.19 | T -0.206 | K 0.007 | R -0.095 | D 0.04
E19: N -0.233 | D -0.154 | C -0.218 | K 0.08 | V -0.17 | L -0.26 | R 0.078 | T 0.046 | W -0.75 | P -0.104 | A -0.097 | S -0.035 | F -0.31 | G -0.103 | Q -0.012 | M -0.228
Q10: I -0.267 | K 0.013 | D -0.12 | A 0.015 | T -0.195 | G -0.231 | S -0.07 | F -0.247 | R 0.012 | V -0.253 | M -0.128 | C -0.225 | E -0.077 | W -0.295 | L -0.173 | N -0.105 | P -1 | H 0.019
I23: D -0.283 | M -0.055 | A -0.115 | F -0.261 | H -0.314 | P -0.591 | G -0.322 | K 0.041 | L -0.188 | Q -0.158 | N -0.104
F17: C -0.488 | K -0.648 | P -0.601 | L -0.342 | M -0.336 | W -0.198 | V -0.501 | N -0.116 | Q -0.366 | I -0.399 | R -0.648 | A -0.449 | S -0.495 | T -0.609 | G -0.465 | E -0.272
Q7: C -0.354 | L -0.296 | D -0.111 | F -0.549 | K 0.009 | R -0.129 | M -0.178 | P -0.796 | V -0.147 | T -0.079 | G -0.157 | N -0.227 | S -0.149 | E -0.036 | I -0.223 | Y -0.345
Q13: L 0.104 | E -0.18 | C 0.037 | S -0.127 | F -0.536 | I 0.071 | A -0.131 | T -0.002 | W -0.851 | M 0.046 | Y -0.53 | D -0.538 | R 0.059 | V 0.067 | K 0.084 | H -0.42
D20: N -0.06 | W -0.268 | V -0.261 | R -0.142 | T -0.059 | Y -0.535 | L -0.288 | P -0.166 | G -0.081 | M -0.168 | Q -0.07 | E 0.007 | K 0 | S -0.063 | C -0.208 | H -0.234 | I -0.384 | A -0.047
V4: S -0.444 | L -0.367 | E -0.402 | T -0.218 | H -0.262 | F -0.357 | D -0.344 | P -0.057 | R -0.515 | G -0.388 | M -0.453 | I -0.15 | W -0.561 | Y -0.272 | C -0.277 | N -0.204
N5: W -0.828 | G -0.653 | Y -0.964 | D -0.028 | K -0.638 | P -0.637 | Q -0.528 | F -1.21 | I -0.82 | V -0.716 | T -0.628 | E -0.442 | H -0.211 | M -0.951 | L -0.878
G16: C -0.914 | A -0.725 | Q -0.953 | I -1.34 | R -1.1 | H -0.275 | T -0.72 | V -1.11 | N -0.494 | P -0.687 | M -0.962 | K -1.03 | D -0.5 | L -0.898 | S -0.88 | E -0.617
M8: Y -0.151 | V -0.508 | R -0.597 | G -0.583 | Q -0.541 | I -0.431 | F -0.162 | W -0.208 | T -0.447 | H -0.244 | L -0.203 | S -0.543 | D -0.419 | C -0.778 | P -0.717 | A -0.525 | K -0.485
L9: P -0.53 | Y -0.421 | S -0.125 | A 0.004 | V -0.045 | F -0.082 | W -0.649 | E -0.273 | N -0.445 | G -0.481 | Q -0.124 | R -0.104 | K 0.136 | H -0.35 | T -0.166
A15: I -0.238 | F -0.3 | M 0.103 | Q 0.042 | W -0.442 | D -0.358 | R 0.022 | Y -0.181 | V -0.429 | N -0.309 | H -0.36 | P -0.954 | S -0.309 | L -0.003 | E -0.308 | C -0.287 | G -0.492 | K -0.046
E3: V -0.802 | W -0.116 | T -0.126 | Y -0.2 | S -0.332 | R -0.202 | P -0.079 | Q -0.138
P6: K 0.101 | E 0.07 | F -0.115 | Y -0.119 | S -0.052 | G -0.048 | A 0.037 | L -0.13 | Q 0.081 | W -0.201 | C -0.219 | N 0.249 | V -0.032 | H -0.001 | R 0.039 | M 0.005 | D 0.007
V22: Y -0.824 | R -0.623 | Q -0.48 | L -0.538 | A 0.18 | C 0.11 | W -0.796 | F -0.807 | E -0.355 | S 0.183 | T -0.262 | P -0.47 | G -0.008 | N -0.448 | H -0.618 | M -0.674
M21: W -0.32 | L 0.032 | V 0.059 | S -0.038 | D 0.023 | P -0.491 | G -0.363 | H -0.294 | E 0.043 | A -0.019 | Y -0.33 | R -0.268 | F -0.291 | C -0.126 | T 0.088 | N -0.148 | K -0.059 | Q 0.077
L12: V -0.562 | M -0.119 | P -0.644 | S -0.616 | Y -1.06 | A -0.607 | I -0.364 | K -0.658 | F -0.737 | T -0.636 | Q -0.594 | E -0.477 | H -0.573 | D -0.469 | R -0.715 | W -0.951 | G -0.57
